± gives the uncertainty stated by the source.
B1: E3 ubiquitin-protein ligase TRIM36, residues 208 to 252; numbered along this chain, Q9NQ86 (parent)
chain: KILMCPEHETERINMYCELCRRPVCHLCKLGGNHANHRVTTMSSA

Variants of: B1
Experiment: abundance fitness (aPCA) (normalised: wild type 0, dead -1); higher = more abundant; growth selection in yeast, the domain comes from the species named
Conditions: Homo sapiens

In order of falling abundance fitness:
1. KILMCPEHETERINMYCELCRRPVCHLCDLGGNHANHRVTTMSSA [K29D]  0.126 ± 0.12
2. KILMCPEHETERINMYCELCRRPVCHLCKLGGNHANHRVTTPSSA [M42P]  0.087 ± 0.068
3. KILMCPEHETERINMYCELCRRPVCHLCKLGGNHANHRVTTMESA [S43E]  0.083 ± 0.069
4. KILMCPEHETERINMYCELCRRPVCHLCKLGGNHANHRVTTMSSD [A45D]  0.078 ± 0.16
5. KILMCPEHETERINMYCELCRRPVCHLCKGGGNHANHRVTTMSSA [L30G]  0.073 ± 0.051
6. KILMCPEHETERINMYCELCRRPVCHLCNLGGNHANHRVTTMSSA [K29N]  0.072 ± 0.084
7. KILMCPEHETERINMYCELCRRPVCHLCKLGGVHANHRVTTMSSA [N33V]  0.039 ± 0.055
8. KILMCKEHETERINMYCELCRRPVCHLCKLGGNHANHRVTTMSSA [P6K]  0.023 ± 0.078
9. KILMCPEHETERINMYCELCRRPVCHQCKLGGNHANHRVTTMSSA [L27Q]  0.019 ± 0.061
10. KILMCTEHETERINMYCELCRRPVCHLCKLGGNHANHRVTTMSSA [P6T]  0.018 ± 0.076
11. KILMCPEHETERINMYCELCRRPVCHLCKPGGNHANHRVTTMSSA [L30P]  0.005 ± 0.056
12. KILMCPEHETERINMYCELCRRPVCHLCSLGGNHANHRVTTMSSA [K29S]  0.003 ± 0.055
13. KILMCPEHETERINMYCELCRRPVCHLCKLGDNHANHRVTTMSSA [G32D]  -0.003 ± 0.067
14. KILMCPEHETERINMYCELCRRPVCHLCKLQGNHANHRVTTMSSA [G31Q]  -0.019 ± 0.056
15. KILMCPEHETERINMYCELCRRNVCHLCKLGGNHANHRVTTMSSA [P23N]  -0.032 ± 0.077
16. KILMCPEHEHERINMYCELCRRPVCHLCKLGGNHANHRVTTMSSA [T10H]  -0.039 ± 0.07
17. KILMCQEHETERINMYCELCRRPVCHLCKLGGNHANHRVTTMSSA [P6Q]  -0.042 ± 0.071
18. KILMCPEHETEGINMYCELCRRPVCHLCKLGGNHANHRVTTMSSA [R12G]  -0.057 ± 0.061
19. KILMCPEHETERINMYCELCRRPVCHECKLGGNHANHRVTTMSSA [L27E]  -0.058 ± 0.05
20. KILMCPEHETERINMYCELCRRAVCHLCKLGGNHANHRVTTMSSA [P23A]  -0.064 ± 0.058
21. KILMCPEHETERINMYCELCRRYVCHLCKLGGNHANHRVTTMSSA [P23Y]  -0.069 ± 0.098
22. KILMCPEHETERINMYCELCRRPVCHLCKHGGNHANHRVTTMSSA [L30H]  -0.078 ± 0.097
23. KILMCPEHESERINMYCELCRRPVCHLCKLGGNHANHRVTTMSSA [T10S]  -0.078 ± 0.057
24. KILMCPEHETERINMYCELCRRPVCHLCKLGGNHKNHRVTTMSSA [A35K]  -0.078 ± 0.072
25. KILMCPEHETERINMYCQLCRRPVCHLCKLGGNHANHRVTTMSSA [E18Q]  -0.08 ± 0.073
26. KILMCPEHETERINTYCELCRRPVCHLCKLGGNHANHRVTTMSSA [M15T]  -0.08 ± 0.1
27. KILMCPEHETERINMYCELCRRVVCHLCKLGGNHANHRVTTMSSA [P23V]  -0.081 ± 0.063
28. KILMCDEHETERINMYCELCRRPVCHLCKLGGNHANHRVTTMSSA [P6D]  -0.092 ± 0.071
29. KILMCPEHETERINMYCELCRRPLCHLCKLGGNHANHRVTTMSSA [V24L]  -0.129 ± 0.058
30. KILMCPEHETSRINMYCELCRRPVCHLCKLGGNHANHRVTTMSSA [E11S]  -0.132 ± 0.097
31. KILMCPEHETERINMYCELCRRPVCHLCKLGGNHANHRVTTYSSA [M42Y]  -0.134 ± 0.1
32. KILMCPEHETEIINMYCELCRRPVCHLCKLGGNHANHRVTTMSSA [R12I]  -0.14 ± 0.079
33. KILMCPEHETERINMYCELCRRPVCHGCKLGGNHANHRVTTMSSA [L27G]  -0.141 ± 0.043
34. KILMCPEHETERINMYCALCRRPVCHLCKLGGNHANHRVTTMSSA [E18A]  -0.145 ± 0.055
35. KILMCREHETERINMYCELCRRPVCHLCKLGGNHANHRVTTMSSA [P6R]  -0.145 ± 0.049
36. KILMCPEHETERINMYCELCRRKVCHLCKLGGNHANHRVTTMSSA [P23K]  -0.146 ± 0.059
37. KILMCPEHETERINMYCELCRRPACHLCKLGGNHANHRVTTMSSA [V24A]  -0.153 ± 0.056
38. KILMCPEHETERINMYCELCRRPVCHLCKLGGNHANHRVTTMSSL [A45L]  -0.156 ± 0.17
39. KILMCPEHETERINMYCELCRRPVCHFCKLGGNHANHRVTTMSSA [L27F]  -0.182 ± 0.083
40. KILMCPEHETERINMYCELCRRPVCHCCKLGGNHANHRVTTMSSA [L27C]  -0.196 ± 0.064
41. KILSCPEHETERINMYCELCRRPVCHLCKLGGNHANHRVTTMSSA [M4S]  -0.203 ± 0.049
42. KILMCPEHETERINMYCCLCRRPVCHLCKLGGNHANHRVTTMSSA [E18C]  -0.209 ± 0.083
43. KILMCCEHETERINMYCELCRRPVCHLCKLGGNHANHRVTTMSSA [P6C]  -0.235 ± 0.069
44. KILGCPEHETERINMYCELCRRPVCHLCKLGGNHANHRVTTMSSA [M4G]  -0.238 ± 0.046
45. RILMCPEHETERINMYCELCRRPVCHLCKLGGNHANHRVTTMSSA [K1R]  -0.28 ± 0.062
46. KILMCPEHETERINMYCELCRRPECHLCKLGGNHANHRVTTMSSA [V24E]  -0.293 ± 0.062
47. KILMCPEHETMRINMYCELCRRPVCHLCKLGGNHANHRVTTMSSA [E11M]  -0.322 ± 0.13
48. KILMCPEHETERINMYCHLCRRPVCHLCKLGGNHANHRVTTMSSA [E18H]  -0.343 ± 0.1
49. KILMCPEHETERINMYCELCRRPWCHLCKLGGNHANHRVTTMSSA [V24W]  -0.351 ± 0.056
50. KILMCPEHETERINMYCELCRRIVCHLCKLGGNHANHRVTTMSSA [P23I]  -0.373 ± 0.066
51. KILMCPEHETERINMYCELMRRPVCHLCKLGGNHANHRVTTMSSA [C20M]  -0.534 ± 0.084
52. KILMCPEHETERINMYCELARRPVCHLCKLGGNHANHRVTTMSSA [C20A]  -0.652 ± 0.059
53. KILMCPEHETERINMYHELCRRPVCHLCKLGGNHANHRVTTMSSA [C17H]  -0.656 ± 0.47
54. KILMCPEHETERINMYGELCRRPVCHLCKLGGNHANHRVTTMSSA [C17G]  -0.733 ± 0.088
55. KILMCPEHETCRINMYCELCRRPVCHLCKLGGNHANHRVTTMSSA [E11C]  -0.773 ± 0.1
56. KILMCPEHETERINMYCELPRRPVCHLCKLGGNHANHRVTTMSSA [C20P]  -0.819 ± 0.059
57. KILMCPEHETERINMYRELCRRPVCHLCKLGGNHANHRVTTMSSA [C17R]  -0.909 ± 0.086

Source: the Human Domainome abundance scans (Beltran et al. 2025)
